Laboratory results as given in US20210395393A1.

Target: TPA mutant tenecteplase (human) (UniProt P00750)
Assay: binding ELISA, plate coated with tenecteplase

TPA mutant tenecteplase (human), sequence (P00750 36-562, change not shown): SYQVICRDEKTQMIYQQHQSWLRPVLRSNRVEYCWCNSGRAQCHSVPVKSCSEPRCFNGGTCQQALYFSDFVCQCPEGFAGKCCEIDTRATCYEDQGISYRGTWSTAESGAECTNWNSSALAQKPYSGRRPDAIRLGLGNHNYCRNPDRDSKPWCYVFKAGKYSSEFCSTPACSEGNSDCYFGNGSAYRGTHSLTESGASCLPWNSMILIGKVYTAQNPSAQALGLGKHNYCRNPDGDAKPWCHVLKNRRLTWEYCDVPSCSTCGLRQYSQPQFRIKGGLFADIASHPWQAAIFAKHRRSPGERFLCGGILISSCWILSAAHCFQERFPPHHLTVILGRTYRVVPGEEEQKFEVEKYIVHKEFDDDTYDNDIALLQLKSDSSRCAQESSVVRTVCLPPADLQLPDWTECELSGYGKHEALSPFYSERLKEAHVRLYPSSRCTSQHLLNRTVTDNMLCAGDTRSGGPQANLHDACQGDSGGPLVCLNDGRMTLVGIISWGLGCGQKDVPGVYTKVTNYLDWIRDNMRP

| EC50 [nM] | Binder |
| --- | --- |
| 0.633 | TPAi-1 RHP/RKA (antibody, V domains shown) VH: QVQLVQSGAEVKKPGASVKVSCKASGNTSYWINWVRQATGQGLEWMGRIDPGGGSTGYAQKFQGRVTMTRDTSISTAYMELSSLRSEDTAVYYCASYYYAMAYWGQGTLVTVSS VL: DVVMTQSPLSLPVTPGEPASISCRSSQSIVHSNGNTYLDWYLQKPGQSPQLLIYKVSNRASGVPDRFSGSGSGTDFTLKISRVEAEDVGVYYCFQGSHVPWTFGGGTKVEIK |
| 1.31 | TPAi-1 RHP/RKA Fab (Fab, V domains shown) VH: QVQLVQSGAEVKKPGASVKVSCKASGNTSYWINWVRQATGQGLEWMGRIDPGGGSTGYAQKFQGRVTMTRDTSISTAYMELSSLRSEDTAVYYCASYYYAMAYWGQGTLVTVSS VL: DVVMTQSPLSLPVTPGEPASISCRSSQSIVHSNGNTYLDWYLQKPGQSPQLLIYKVSNRASGVPDRFSGSGSGTDFTLKISRVEAEDVGVYYCFQGSHVPWTFGGGTKVEIK |
